According to paper PMC2989460:

Target: anaphase-promoting complex/cyclosome (APC/C), human (human (endogenous in HeLa)) (UniProt Q9H1A4)
Assay: cryo-EM structure

Chain of UniProt Q9H1A4 (Q9H1A4 whole entry, looked up, one chain of several): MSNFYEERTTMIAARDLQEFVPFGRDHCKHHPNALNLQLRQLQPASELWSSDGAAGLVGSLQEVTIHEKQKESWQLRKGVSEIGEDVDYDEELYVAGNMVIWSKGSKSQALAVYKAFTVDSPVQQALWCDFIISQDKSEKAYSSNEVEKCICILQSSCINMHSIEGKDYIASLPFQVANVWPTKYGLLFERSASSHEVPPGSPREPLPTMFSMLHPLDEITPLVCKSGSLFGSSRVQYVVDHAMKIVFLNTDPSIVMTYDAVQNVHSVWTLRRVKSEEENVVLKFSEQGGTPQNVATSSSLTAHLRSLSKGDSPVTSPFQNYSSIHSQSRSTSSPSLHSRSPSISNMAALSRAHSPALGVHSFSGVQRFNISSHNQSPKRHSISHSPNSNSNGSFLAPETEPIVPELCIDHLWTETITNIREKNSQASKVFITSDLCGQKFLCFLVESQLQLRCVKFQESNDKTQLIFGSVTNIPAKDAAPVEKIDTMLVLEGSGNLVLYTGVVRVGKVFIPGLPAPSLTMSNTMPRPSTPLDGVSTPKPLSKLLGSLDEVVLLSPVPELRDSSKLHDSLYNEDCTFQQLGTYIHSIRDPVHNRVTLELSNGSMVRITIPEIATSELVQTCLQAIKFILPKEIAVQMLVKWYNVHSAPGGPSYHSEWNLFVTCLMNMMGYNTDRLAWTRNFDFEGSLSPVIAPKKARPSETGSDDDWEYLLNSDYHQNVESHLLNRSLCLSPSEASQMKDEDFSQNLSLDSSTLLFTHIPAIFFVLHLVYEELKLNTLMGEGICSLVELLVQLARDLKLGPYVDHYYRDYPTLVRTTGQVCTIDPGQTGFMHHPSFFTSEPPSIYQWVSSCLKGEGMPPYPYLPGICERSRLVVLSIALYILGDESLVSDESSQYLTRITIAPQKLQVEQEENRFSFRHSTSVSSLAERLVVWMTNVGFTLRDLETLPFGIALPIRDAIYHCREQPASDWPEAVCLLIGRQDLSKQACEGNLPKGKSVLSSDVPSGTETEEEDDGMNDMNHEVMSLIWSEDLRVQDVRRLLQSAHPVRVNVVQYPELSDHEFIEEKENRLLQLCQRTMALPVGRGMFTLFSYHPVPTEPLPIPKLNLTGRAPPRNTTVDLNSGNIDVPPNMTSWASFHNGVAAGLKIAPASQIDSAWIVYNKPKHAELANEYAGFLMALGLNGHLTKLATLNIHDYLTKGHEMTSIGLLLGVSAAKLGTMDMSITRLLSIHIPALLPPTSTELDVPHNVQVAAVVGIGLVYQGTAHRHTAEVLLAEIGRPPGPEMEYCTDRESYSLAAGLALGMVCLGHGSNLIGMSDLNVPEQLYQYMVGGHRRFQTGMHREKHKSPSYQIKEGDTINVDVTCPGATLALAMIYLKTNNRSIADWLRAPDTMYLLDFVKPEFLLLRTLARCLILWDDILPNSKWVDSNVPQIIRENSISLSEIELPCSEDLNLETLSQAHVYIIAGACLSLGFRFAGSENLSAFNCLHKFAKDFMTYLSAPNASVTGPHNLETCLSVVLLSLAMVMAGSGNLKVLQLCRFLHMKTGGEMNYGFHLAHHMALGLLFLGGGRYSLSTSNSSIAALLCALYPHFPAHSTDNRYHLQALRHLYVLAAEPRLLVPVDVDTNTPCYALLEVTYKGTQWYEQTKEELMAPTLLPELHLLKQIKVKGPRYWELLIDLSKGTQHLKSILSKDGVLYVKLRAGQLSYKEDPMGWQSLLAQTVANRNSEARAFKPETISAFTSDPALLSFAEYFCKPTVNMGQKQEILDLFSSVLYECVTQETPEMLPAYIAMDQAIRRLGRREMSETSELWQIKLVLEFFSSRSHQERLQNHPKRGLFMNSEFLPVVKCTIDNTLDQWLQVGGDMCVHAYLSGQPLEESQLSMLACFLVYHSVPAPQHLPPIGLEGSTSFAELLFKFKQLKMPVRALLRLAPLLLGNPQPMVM

In the case of “recombinant Cdc20 (from UniProt Q12834 1-499) (natural protein)”, the percent of APC/C molecules with the additional Cdc20 mass is reported as 30%.
